Our source for the Kd and kon values is article PMC3322551.

pKd: −log10 of the molar value.

This assay concerns the target porcine plasminogen (porcine). Description: SPR.
A word on the pKd: it is the negative decadic logarithm of the Kd, by convention in mol/L. Higher therefore signals a small Kd. As a reminder, the kon is a measure of how fast the partners come together. A lower kon goes with slow association. “F3_(P146/JΔK), strain J F3_(P146) without its C-terminal lysine (domain or fragment)”: the pKd was 6.68 and the kon came out at 13000 M⁻¹ s⁻¹.
In turn, “F3_(P146/232ΔR), strain 232 F3_(P146) without its C-terminal arginine (domain or fragment)” gave a pKd of 6.66 and a kon of 13000 M⁻¹ s⁻¹.
Turning to “F3_(P146/232), recombinant C-terminal fragment of P146 (Mhp684) of Mycoplasma hyopneumoniae strain 232 (domain or fragment)”, the pKd was 7.34 and the on-rate (kon) worked out at 170000 M⁻¹ s⁻¹.
“F3_(P146/J), recombinant C-terminal fragment of P146 (MHJ_0663) of Mycoplasma hyopneumoniae strain J (domain or fragment)” showed a pKd of 7.41 and an on-rate (kon) of 46000 M⁻¹ s⁻¹.
